Test results: IntAct's records for PubMed 35512704

B1: Speckle-type POZ protein (Homo sapiens), O43791 (parent)
chain: MSRVPSPPPPAEMSSGPVAESWCYTQIKVVKFSYMWTINNFSFCREEMGEVIKSSTFSSGANDKLKWCLRVNPKGLDEESKDYLSLYLLLVSCPKSEVRAKFKFSILNAKGEETKAMESQRAYRFVQGKDWGFKKFIRRDFLLDEANGLLPDDKLTLFCEVSVVQDSVNISGQNTMNMVKVPECRLADELGGLWENSRFTDCCLCVAGQEFQAHKAILAARSPVFSAMFEHEMEESKKNRVEINDVEPEVFKEMMCFIYTGKAPNLDKMADDLLAAADKYALERLKVMCEDALCSNLSVENAAEILILADLHSADQLKTQAVDFINYHASDVLETSGWKSMVVSHPHLVAEAYRSLASAQCPFLGPPRKRLKQS
partner: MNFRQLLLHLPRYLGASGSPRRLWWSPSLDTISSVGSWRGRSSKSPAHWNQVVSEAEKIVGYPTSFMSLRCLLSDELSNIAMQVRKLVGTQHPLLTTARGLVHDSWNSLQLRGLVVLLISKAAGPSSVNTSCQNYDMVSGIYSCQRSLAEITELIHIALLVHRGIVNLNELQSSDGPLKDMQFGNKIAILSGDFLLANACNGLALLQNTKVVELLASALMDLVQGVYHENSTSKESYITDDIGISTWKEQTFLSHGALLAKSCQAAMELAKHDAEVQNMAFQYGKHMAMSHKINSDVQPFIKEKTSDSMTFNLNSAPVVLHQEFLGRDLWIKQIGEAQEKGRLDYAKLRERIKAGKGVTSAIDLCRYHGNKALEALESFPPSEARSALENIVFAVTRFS
B2: Speckle-type POZ protein (Homo sapiens), O43791 (parent)
chain: B1 chain
partner: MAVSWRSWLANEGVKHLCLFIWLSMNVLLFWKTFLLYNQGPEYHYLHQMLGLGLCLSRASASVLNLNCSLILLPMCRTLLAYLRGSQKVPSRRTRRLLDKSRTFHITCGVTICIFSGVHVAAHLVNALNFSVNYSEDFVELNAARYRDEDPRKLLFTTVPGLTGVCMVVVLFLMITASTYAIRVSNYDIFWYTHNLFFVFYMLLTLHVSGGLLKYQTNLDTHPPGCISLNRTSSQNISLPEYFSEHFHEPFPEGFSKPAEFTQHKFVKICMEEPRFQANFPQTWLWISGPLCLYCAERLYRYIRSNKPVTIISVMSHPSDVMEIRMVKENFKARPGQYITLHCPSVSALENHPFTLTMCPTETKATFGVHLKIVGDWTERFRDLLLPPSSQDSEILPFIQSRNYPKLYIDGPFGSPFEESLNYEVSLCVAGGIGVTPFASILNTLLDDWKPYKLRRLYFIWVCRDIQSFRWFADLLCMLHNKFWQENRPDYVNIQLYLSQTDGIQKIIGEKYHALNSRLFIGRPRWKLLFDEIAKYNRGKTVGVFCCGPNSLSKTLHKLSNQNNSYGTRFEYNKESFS
B3: Speckle-type POZ protein (Homo sapiens), O43791 (parent)
chain: B1 chain
partner: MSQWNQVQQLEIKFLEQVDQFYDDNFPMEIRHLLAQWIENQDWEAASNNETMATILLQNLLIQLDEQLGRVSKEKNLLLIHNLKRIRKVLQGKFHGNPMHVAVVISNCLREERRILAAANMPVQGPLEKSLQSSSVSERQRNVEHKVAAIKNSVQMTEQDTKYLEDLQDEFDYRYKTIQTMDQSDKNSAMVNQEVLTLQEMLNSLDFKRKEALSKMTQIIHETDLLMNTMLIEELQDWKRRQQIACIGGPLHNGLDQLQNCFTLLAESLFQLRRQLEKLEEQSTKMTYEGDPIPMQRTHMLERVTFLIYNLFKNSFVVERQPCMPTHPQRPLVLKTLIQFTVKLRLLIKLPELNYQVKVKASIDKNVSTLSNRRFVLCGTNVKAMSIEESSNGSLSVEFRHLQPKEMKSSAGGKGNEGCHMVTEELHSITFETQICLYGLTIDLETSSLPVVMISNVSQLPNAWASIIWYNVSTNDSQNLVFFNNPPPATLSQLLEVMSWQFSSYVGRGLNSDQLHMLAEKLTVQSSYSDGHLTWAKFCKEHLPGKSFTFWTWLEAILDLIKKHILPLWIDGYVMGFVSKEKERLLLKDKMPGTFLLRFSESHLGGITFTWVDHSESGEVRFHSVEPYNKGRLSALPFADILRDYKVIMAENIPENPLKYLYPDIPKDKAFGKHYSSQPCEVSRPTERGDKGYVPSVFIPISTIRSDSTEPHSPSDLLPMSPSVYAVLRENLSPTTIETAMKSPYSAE
B4: Speckle-type POZ protein (Homo sapiens), O43791 (parent)
chain: B1 chain
partner: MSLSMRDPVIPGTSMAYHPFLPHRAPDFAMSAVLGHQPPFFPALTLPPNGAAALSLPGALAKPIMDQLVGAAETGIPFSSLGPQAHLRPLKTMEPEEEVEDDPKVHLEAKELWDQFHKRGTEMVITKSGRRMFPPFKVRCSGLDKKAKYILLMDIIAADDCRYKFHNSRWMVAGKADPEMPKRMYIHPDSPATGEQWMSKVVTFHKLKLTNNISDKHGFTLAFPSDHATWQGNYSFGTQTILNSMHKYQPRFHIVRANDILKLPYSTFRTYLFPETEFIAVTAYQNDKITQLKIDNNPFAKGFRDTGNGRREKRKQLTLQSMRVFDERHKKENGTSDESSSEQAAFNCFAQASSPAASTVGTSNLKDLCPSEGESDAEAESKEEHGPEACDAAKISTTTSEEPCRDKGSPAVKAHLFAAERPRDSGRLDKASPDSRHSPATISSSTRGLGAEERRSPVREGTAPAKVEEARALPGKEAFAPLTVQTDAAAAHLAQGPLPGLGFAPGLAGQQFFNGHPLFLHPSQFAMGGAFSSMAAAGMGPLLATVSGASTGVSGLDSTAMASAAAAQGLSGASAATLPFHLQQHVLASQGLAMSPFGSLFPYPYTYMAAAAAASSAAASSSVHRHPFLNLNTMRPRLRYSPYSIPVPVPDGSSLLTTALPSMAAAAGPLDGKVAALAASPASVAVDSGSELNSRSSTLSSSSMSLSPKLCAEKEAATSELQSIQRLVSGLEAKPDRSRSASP
B5: Speckle-type POZ protein (Homo sapiens), O43791 (parent)
chain: B1 chain
partner: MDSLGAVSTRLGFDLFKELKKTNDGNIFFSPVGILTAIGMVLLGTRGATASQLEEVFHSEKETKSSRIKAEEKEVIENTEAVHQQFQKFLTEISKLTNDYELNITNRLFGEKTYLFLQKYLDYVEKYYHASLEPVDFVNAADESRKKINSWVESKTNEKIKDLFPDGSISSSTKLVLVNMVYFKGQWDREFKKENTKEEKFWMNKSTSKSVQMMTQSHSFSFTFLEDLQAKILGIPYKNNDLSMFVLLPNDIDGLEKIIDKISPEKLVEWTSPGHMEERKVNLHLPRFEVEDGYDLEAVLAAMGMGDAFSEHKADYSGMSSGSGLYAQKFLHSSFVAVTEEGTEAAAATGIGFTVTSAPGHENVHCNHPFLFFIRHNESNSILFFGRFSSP
B6: Speckle-type POZ protein (Homo sapiens), O43791 (parent)
chain: B1 chain
partner: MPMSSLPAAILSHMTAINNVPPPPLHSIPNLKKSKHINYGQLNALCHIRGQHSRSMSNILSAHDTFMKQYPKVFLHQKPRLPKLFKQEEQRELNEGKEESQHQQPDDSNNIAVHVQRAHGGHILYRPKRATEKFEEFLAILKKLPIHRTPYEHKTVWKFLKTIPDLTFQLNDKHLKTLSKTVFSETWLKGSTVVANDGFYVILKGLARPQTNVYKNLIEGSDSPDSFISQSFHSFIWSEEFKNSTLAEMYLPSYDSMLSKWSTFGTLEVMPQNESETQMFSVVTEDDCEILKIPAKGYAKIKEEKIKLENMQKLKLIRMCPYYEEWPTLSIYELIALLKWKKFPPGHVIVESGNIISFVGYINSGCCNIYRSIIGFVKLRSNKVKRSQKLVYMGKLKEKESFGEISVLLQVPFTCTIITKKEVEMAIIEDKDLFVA

Variants of: B1
Conditions: with dlp1_human PDSS2, Q86YH6
With F133L the “effect of a mutation on the interaction” value was “with no effect”.

Variants of: B1
Conditions: with dlp1_human PDSS2, Q86YH6
Remark: another data set of the same source
With Y87C the “effect of a mutation on the interaction” value was “with no effect”.

Variants of: B2
Conditions: with nox4_human NOX4, Q9NPH5
Y87C was tested, and the “effect of a mutation on the interaction” value was “with no effect”.

Variants of: B3
Conditions: with stat4_human STAT4, Q14765
For F133V, the “effect of a mutation on the interaction” value was “with no effect”.

Variants of: B3
Conditions: with stat4_human STAT4, Q14765
Remark: another data set of the same source
F133L was tested, and the “effect of a mutation on the interaction” value was “with no effect”.

Variants of: B3
Conditions: with stat4_human STAT4, Q14765
Remark: another data set of the same source
With Y87C the “effect of a mutation on the interaction” value was “with no effect”.

Variants of: B3
Conditions: with stat4_human STAT4, Q14765
Remark: another data set of the same source
For F102C, the “effect of a mutation on the interaction” value was “with no effect”.

Variants of: B4
Conditions: with tbx3_human TBX3, O15119
With F133V the “effect of a mutation on the interaction” value was “with no effect”.

Variants of: B4
Conditions: with tbx3_human TBX3, O15119
Remark: another data set of the same source
F133L was tested, and the “effect of a mutation on the interaction” value was “with no effect”.

Variants of: B4
Conditions: with tbx3_human TBX3, O15119
Remark: another data set of the same source
For F102C, the “effect of a mutation on the interaction” value was “with no effect”.

Variants of: B4
Conditions: with tbx3_human TBX3, O15119
Remark: another data set of the same source
In the case of Y87C, the “effect of a mutation on the interaction” value is reported as “with no effect”.

Variants of: B5
Conditions: with spb13_human SERPINB13, Q9UIV8
F133V was tested, and the “effect of a mutation on the interaction” value was “with no effect”.

Variants of: B5
Conditions: with spb13_human SERPINB13, Q9UIV8
Remark: another data set of the same source
F133L was tested, and the “effect of a mutation on the interaction” value was “with no effect”.

Variants of: B5
Conditions: with spb13_human SERPINB13, Q9UIV8
Remark: another data set of the same source
With Y87C the “effect of a mutation on the interaction” value was “with no effect”.

Variants of: B5
Conditions: with spb13_human SERPINB13, Q9UIV8
Remark: another data set of the same source
For F102C, the “effect of a mutation on the interaction” value was “with no effect”.

Variants of: B6
Conditions: with cnbd1_human CNBD1, Q8NA66
With Y87C the “effect of a mutation on the interaction” value was “with no effect”.

Variants of: B6
Conditions: with cnbd1_human CNBD1, Q8NA66
Remark: another data set of the same source
With F133V the “effect of a mutation on the interaction” value was “with no effect”.

Variants of: B6
Conditions: with cnbd1_human CNBD1, Q8NA66
Remark: another data set of the same source
In the case of F133L, the “effect of a mutation on the interaction” value is reported as “with no effect”.
